Results: patent US20260242478A1 (published 2026)
Where no end group is shown, it is not given here.

Assays:
[1] = target: T1, Anti-CD28 Fab (SEQ ID NOs: 696, 697); assay: phage binding ELISA; Fab coated wells pre-incubated with CD28 antigen as competitor, anti-M13 HRP detection
T1 construct: Biotinylated and captured on neutravidin coated plates in the phage ELISA
Method: (§1) Clonal phage were harvested as crude supematants and screened via standard ELISAs. […] Prior to the addition of clonal phage, wells were incubated with blocking buffer and CD28 antigen or blocking buffer alone. Without washing or aspirating, clonal phage supematants were then added to the wells and incubated for a short time. Wells were then washed followed by detection of bound phage using a horse radish conjugated anti-M13 antibody.

[2] = target: T1, Anti-CD28 Fab (SEQ ID NOs: 696, 697); assay: phage binding ELISA; biotinylated anti-CD28 Fab on neutravidin plate, clonal phage supernatant, anti-M13 HRP detection;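 note: wells pretreated with blocking buffer, either plus or minus CD28 antigen, then given crude phage supernatant briefly without washing in between, then washed before anti-M13 HRP readout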
Method: as §1

[3] = target: T2, Anti-PSMA Fab (SEQ ID NOs: 19, 20); assay: phage ELISA; PSMA Fab on plate pre-incubated with PSMA antigen as competitor, anti-M13-HRP detection;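 note: clonal phage from crude supernatants added without washing to wells preblocked with or without PSMA antigen, washed, bound phage read out by ELISA with HRP-linked anti-M13 antibody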
T2 construct: Biotinylated and captured on neutravidin coated plates in the phage ELISA; also called 006 PSMA Fab
Method: (§2) Clonal phage were harvested as crude supernatants and screened via standard ELISAs. […] Prior to the addition of clonal phage. wells were incubated with blocking buffer and PSMA antigen or blocking buffer alone. Without washing or aspirating, clonal phage supernatants were then added to the wells and incubated for a short time. Wells were then washed followed by detection of bound phage using a horse radish conjugated anti-M13 antibody.

[4] = target: T2, Anti-PSMA Fab (SEQ ID NOs: 19, 20); assay: phage ELISA; biotinylated PSMA Fab on neutravidin plate, clonal phage supernatant, anti-M13-HRP detection;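 note: wells were preincubated with blocking buffer containing PSMA antigen or with blocking buffer only, then phage supernatant was added without washing for a brief incubation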
Method: as §2

[5] = target: T3, anti-CD28 scFv (VH - linker 1 - VL) (biotinylated (site not given)); assay: phage ELISA as above; wells pre-incubated with soluble CD28 as competitor;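 note: crude clonal phage supernatants tested, with bound phage detected by HRP-conjugated anti-M13 antibody, and reference wells given blocking buffer without CD28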
T3 construct: Biotinylated scFv captured on neutravidin coated plates in the panning ELISA
T3 sequence (scFv, as listed by the source): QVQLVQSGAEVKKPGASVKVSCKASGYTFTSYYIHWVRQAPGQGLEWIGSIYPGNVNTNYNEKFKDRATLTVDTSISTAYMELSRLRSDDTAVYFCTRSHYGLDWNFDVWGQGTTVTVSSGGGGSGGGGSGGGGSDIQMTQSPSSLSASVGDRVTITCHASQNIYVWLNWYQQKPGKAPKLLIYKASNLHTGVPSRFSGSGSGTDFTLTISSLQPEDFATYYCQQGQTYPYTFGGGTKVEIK

[6] = target: T3, anti-CD28 scFv (VH - linker 1 - VL); assay: phage ELISA; biotinylated anti-CD28 scFv on neutravidin plate, clonal phage supernatant, anti-M13 HRP
Method: Clonal phage were harvested as crude supernatants and screened via standard enzyme linked immunosorbent assays (ELISAs). […] Prior to the addition of clonal phage, wells were incubated with blocking buffer and CD28 soluble protein or blocking buffer alone. Without washing or aspirating, clonal phage supernatants were then added to the wells and incubated for a short time. Wells were then washed followed by detection of bound phage using a horse radish peroxidase conjugated anti-M13 antibody.

T1 sequence (VH, as listed by the source, chain 1 of 2): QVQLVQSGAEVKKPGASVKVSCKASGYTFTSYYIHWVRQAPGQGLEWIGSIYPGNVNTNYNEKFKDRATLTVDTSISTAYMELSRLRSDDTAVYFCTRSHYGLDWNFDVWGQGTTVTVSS
T1 sequence (VL, as listed by the source, chain 2 of 2): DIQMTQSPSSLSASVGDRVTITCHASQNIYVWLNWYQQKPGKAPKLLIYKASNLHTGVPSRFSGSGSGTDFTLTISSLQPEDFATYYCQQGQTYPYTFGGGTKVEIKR

LCAAGASWPWPVCL [Phage-1335]
Anti-CD28 Fab signal in the presence of CD28 [1]: 0.08
Anti-CD28 Fab (SEQ ID NOs: 696, 697) signal [2]: 2.16

TCAAGATWSWPACF [Phage-1339]
Anti-CD28 Fab signal in the presence of CD28 [1]: 0.07
Anti-CD28 Fab (SEQ ID NOs: 696, 697) signal [2]: 2.23

TCSAGAAYSWPACF [Phage-1343]
Anti-CD28 Fab signal in the presence of CD28 [1]: 0.15
Anti-CD28 Fab (SEQ ID NOs: 696, 697) signal [2]: 1.89

TCSAGATWPWPICL [Phage-1334]
Anti-CD28 Fab signal in the presence of CD28 [1]: 0.07
Anti-CD28 Fab (SEQ ID NOs: 696, 697) signal [2]: 2

YCMGHSHEHIWKCL [Phage-476]
Anti-CD28 Fab signal in the presence of CD28 [1]: 0.07
Anti-CD28 Fab (SEQ ID NOs: 696, 697) signal [2]: 0.87

PPILCIPQWMCSPT (cysteine pairing not given here; also: displayed as fusion to phage pIII) [Phage-1981]
Phage binding ELISA, Anti-PSMA Fab signal in the presence of PSMA [3]: 0.0785
Phage binding ELISA, Anti-PSMA Fab signal [4]: 1.88

VEKWCTPPWMCAGW (cysteine pairing not given here; also: displayed as fusion to phage pIII, tested as crude phage supernatant) [Phage-1987]
Phage binding ELISA, Anti-PSMA Fab signal in the presence of PSMA [3]: 0.0659
Phage binding ELISA, Anti-PSMA Fab signal [4]: 1.87

YCAGHMPQYEVKCL [Phage-474]
Anti-CD28 Fab signal in the presence of CD28 [1]: 0.06
Anti-CD28 Fab (SEQ ID NOs: 696, 697) signal [2]: 0.22

B1: Phage-109 (peptide)
peptide: MDWCPKNLWHVCFN
modifications: cysteine pairing not given here; also: phage-displayed pIII fusion, pIII and linker not given here
CD28 scFv signal in presence of CD28 [5]: 0.248
CD28 scFv signal [6]: 2.53

B2: Phage-111 (peptide)
peptide: MDWCPFYLWNECFY
modifications: cysteine pairing not given here; also: phage-displayed pIII fusion, pIII and linker not given here
CD28 scFv signal in presence of CD28 [5]: 0.594
CD28 scFv signal [6]: 2.53

B3: Phage-114 (peptide)
peptide: MDWCPRYLWFECFA
modifications: cysteine pairing not given here; also: phage-displayed pIII fusion, pIII and linker not given here
CD28 scFv signal in presence of CD28 [5]: 0.21
CD28 scFv signal [6]: 2.5

TCSAGASYPWPLCL [Phage-1336]
Anti-CD28 Fab signal in the presence of CD28 [1]: 0.06
Anti-CD28 Fab (SEQ ID NOs: 696, 697) signal [2]: 2.38

TCSAGAAYPWPLCL [Phage-1342]
Anti-CD28 Fab signal in the presence of CD28 [1]: 0.08
Anti-CD28 Fab (SEQ ID NOs: 696, 697) signal [2]: 2.36

YCAGHSHEYLAKCE (also called YCAGHSHEYLAKCE) [Phage-477]
Anti-CD28 Fab signal in the presence of CD28 [1]: 0.06
Anti-CD28 Fab (SEQ ID NOs: 696, 697) signal [2]: 0.86

IFEWCVPAWMCESR (tested as crude phage supernatant) [Phage-1983]
Phage binding ELISA, Anti-PSMA Fab signal in the presence of PSMA [3]: 0.104
Phage binding ELISA, Anti-PSMA Fab signal [4]: 1.88

EPKLCTPTWMCIGF (tested as crude phage supernatant) [Phage-1989]
Phage binding ELISA, Anti-PSMA Fab signal in the presence of PSMA [3]: 0.118
Phage binding ELISA, Anti-PSMA Fab signal [4]: 1.87

TCSAGATYTWPKCF [Phage-1338]
Anti-CD28 Fab signal in the presence of CD28 [1]: 0.06
Anti-CD28 Fab (SEQ ID NOs: 696, 697) signal [2]: 1.87

B4: Phage-98 (peptide)
peptide: MDWCPKYLWDVCFN
modifications: cysteine pairing not given here; also: displayed on phage as fusion to pIII, linker not given here
CD28 scFv signal in presence of CD28 [5]: 0.422
CD28 scFv signal [6]: 2.57

B5: Phage-113 (peptide)
peptide: MDWCPRDLWNVCFF
modifications: cysteine pairing not given here; also: phage-displayed pIII fusion, pIII and linker not given here
CD28 scFv signal in presence of CD28 [5]: 0.137
CD28 scFv signal [6]: 2.52

VVKMCRPAWMCDLV (tested as crude phage supernatant) [Phage-1984]
Phage binding ELISA, Anti-PSMA Fab signal in the presence of PSMA [3]: 0.0833
Phage binding ELISA, Anti-PSMA Fab signal [4]: 1.88

LVKWCTPSWMCINL (tested as crude phage supernatant) [Phage-1991]
Phage binding ELISA, Anti-PSMA Fab signal in the presence of PSMA [3]: 0.0883
Phage binding ELISA, Anti-PSMA Fab signal [4]: 1.87

LENWCIPRWMCHGF (tested as crude phage supernatant) [Phage-1985]
Phage binding ELISA, Anti-PSMA Fab signal in the presence of PSMA [3]: 0.152
Phage binding ELISA, Anti-PSMA Fab signal [4]: 1.88

TCAAGAAWPWPQCL [Phage-1337]
Anti-CD28 Fab signal in the presence of CD28 [1]: 0.08
Anti-CD28 Fab (SEQ ID NOs: 696, 697) signal [2]: 2.23

B6: Phage-115 (peptide)
peptide: MDWCPRYLWHECFN
modifications: cysteine pairing not given here; also: phage-displayed pIII fusion, pIII and linker not given here
CD28 scFv signal in presence of CD28 [5]: 0.421
CD28 scFv signal [6]: 2.49

B7: Phage-100 (peptide)
peptide: MDWCPRYLWTECFN
modifications: cysteine pairing not given here; also: phage-displayed pIII fusion, pIII and linker not given here
CD28 scFv signal in presence of CD28 [5]: 0.549
CD28 scFv signal [6]: 2.56

B8: Phage-110 (peptide)
peptide: MDWCPRYLWDECFN
modifications: cysteine pairing not given here; also: phage-displayed pIII fusion, pIII and linker not given here
CD28 scFv signal in presence of CD28 [5]: 0.283
CD28 scFv signal [6]: 2.53

YCAGMSTIQLWLKC [Phage-473]
Anti-CD28 Fab signal in the presence of CD28 [1]: 0.09
Anti-CD28 Fab (SEQ ID NOs: 696, 697) signal [2]: 2.16

B9: Phage-99 (peptide)
peptide: MDWCPRYLWNMCFH
modifications: cysteine pairing not given here; also: displayed on phage as fusion to pIII, linker not given here
CD28 scFv signal in presence of CD28 [5]: 0.404
CD28 scFv signal [6]: 2.56

LDNWCRPLWMCTGF (tested as crude phage supernatant) [Phage-1988]
Phage binding ELISA, Anti-PSMA Fab signal in the presence of PSMA [3]: 0.0836
Phage binding ELISA, Anti-PSMA Fab signal [4]: 1.87

YCAGHTEEHYVKCM [Phage-475]
Anti-CD28 Fab signal in the presence of CD28 [1]: 0.07
Anti-CD28 Fab (SEQ ID NOs: 696, 697) signal [2]: 0.62

B10: Phage-116 (peptide)
peptide: MDWCPRDLWYACFA
modifications: cysteine pairing not given here; also: phage-displayed pIII fusion, pIII and linker not given here
CD28 scFv signal in presence of CD28 [5]: 0.242
CD28 scFv signal [6]: 2.47

LMKWCIPEWMCVDS (tested as crude phage supernatant) [Phage-1990]
Phage binding ELISA, Anti-PSMA Fab signal in the presence of PSMA [3]: 0.0631
Phage binding ELISA, Anti-PSMA Fab signal [4]: 1.87

B11: Phage-112 (peptide)
peptide: MHWCPRALWDVCYN
modifications: cysteine pairing not given here; also: phage-displayed pIII fusion, pIII and linker not given here
CD28 scFv signal in presence of CD28 [5]: 0.24
CD28 scFv signal [6]: 2.53

YEKWCTPPWMCEML (tested as crude phage supernatant) [Phage-1986]
Phage binding ELISA, Anti-PSMA Fab signal in the presence of PSMA [3]: 0.0833
Phage binding ELISA, Anti-PSMA Fab signal [4]: 1.88

LCAAGATYPWPLCL [Phage-1341]
Anti-CD28 Fab signal in the presence of CD28 [1]: 0.07
Anti-CD28 Fab (SEQ ID NOs: 696, 697) signal [2]: 2.39

LCAAGATYPWPTCL [Phage-1344]
Anti-CD28 Fab signal in the presence of CD28 [1]: 0.06
Anti-CD28 Fab (SEQ ID NOs: 696, 697) signal [2]: 1.71

VGMLCKPSWMCDWL (tested as crude phage supernatant) [Phage-1982]
Phage binding ELISA, Anti-PSMA Fab signal in the presence of PSMA [3]: 0.0813
Phage binding ELISA, Anti-PSMA Fab signal [4]: 1.88

TCAAGAAWGWPLCF [Phage-1340]
Anti-CD28 Fab signal in the presence of CD28 [1]: 0.07
Anti-CD28 Fab (SEQ ID NOs: 696, 697) signal [2]: 2.3
